Results as given in patent US6018021.

What was measured:
[1] = biological target: full-length recombinant TAL-H protein (38 kDa), cleaved with thrombin from a GST fusion protein (human)
[2] = biological target: tetanus toxoid (Clostridium tetani (strain Massachusetts / E88)) (UniProt P04958)
[3] = biological target: purified human myelin basic protein (18.5 kDa) (human) (UniProt P02686)
[4] = biological target: full-length recombinant TAL-H protein (38 kDa), cleaved with thrombin from a GST fusion protein (human); remark: listed apart in the source

3H-TdR incorporation, Stimulation Index (S.I.) [1] | Substance | Stimulation Index [2] | Stimulation Index [3] | Stimulation Index [4]
2.3 S.I. | peripheral blood lymphocytes of control donor ten (cells without a defined receptor) | – | – | –
– | peripheral blood lymphocytes of MS patient fifteen (cells without a defined receptor) | 0.96 S.I. | 1.53 S.I. | 4.61 S.I.
3.1 S.I. | peripheral blood lymphocytes of MS patient nine (cells without a defined receptor) | – | – | –
10.3 S.I. | peripheral blood lymphocytes of MS patient eleven (cells without a defined receptor) | – | – | –
1 S.I. | peripheral blood lymphocytes of control donor three (cells without a defined receptor) | – | – | –
4.5 S.I. | peripheral blood lymphocytes of MS patient eight (cells without a defined receptor) | – | – | –
– | peripheral blood lymphocytes of MS patient seventeen (cells without a defined receptor) | 3.81 S.I. | 3.01 S.I. | 6.47 S.I.
– | peripheral blood lymphocytes of MS patient thirteen (cells without a defined receptor) | 0.79 S.I. | 2.25 S.I. | 3.95 S.I.
4.7 S.I. | peripheral blood lymphocytes of MS patient two (cells without a defined receptor) | – | – | –
– | peripheral blood lymphocytes of MS patient one (cells without a defined receptor) | 0.8 S.I. | 0.89 S.I. | 1.81 S.I.
7.1 S.I. | peripheral blood lymphocytes of MS patient fourteen (cells without a defined receptor) | – | – | –
2.7 S.I. | peripheral blood lymphocytes of MS patient four (cells without a defined receptor) | – | – | –
0.7 S.I. | peripheral blood lymphocytes of control donor PEG (cells without a defined receptor) | – | – | –
3.1 S.I. | peripheral blood lymphocytes of MS patient twelve (cells without a defined receptor) | – | – | –
1 S.I. | peripheral blood lymphocytes of control donor PRO (cells without a defined receptor) | – | – | –
1.4 S.I. | peripheral blood lymphocytes of MS patient seven (cells without a defined receptor) | – | – | –
3.3 S.I. | peripheral blood lymphocytes of MS patient five (cells without a defined receptor) | – | – | –
1.4 S.I. | peripheral blood lymphocytes of control donor sixteen (cells without a defined receptor) | – | – | –
2.9 S.I. | peripheral blood lymphocytes of MS patient six (cells without a defined receptor) | – | – | –
